# Test results reported in PMC4848090, “Mechanistic insight into a peptide hormone signaling complex mediating floral organ abscission” (eLife, 2016).
# Non-standard residues stand in square brackets, D forms with d. No end group written: not given here. Hyp = O=C(O)[C@@H]1C[C@@H](O)CN1
# B1: synthetic IDL1 peptide LVPPSG-Hyp-SMRHN (crystal soak) (peptide)
# peptide: LVPPSG[Hyp]SMRHN
# notes: IDA-LIKE 1 (IDL1), Arabidopsis thaliana; Hyp written as P; source: synthetic peptide
# B2: Arabidopsis thaliana HAESA ectodomain (residues 20–620) (domain or fragment)
# chain: SLNQDATILRQAKLGLSDPAQSLSSWSDNNDVTPCKWLGVSCDATSNVVSVDLSSFMLVGPFPSILCHLPSLHSLSLYNNSINGSLSADDFDTCHNLISLDLSENLLVGSIPKSLPFNLPNLKFLEISGNNLSDTIPSSFGEFRKLESLNLAGNFLSGTIPASLGNVTTLKELKLAYNLFSPSQIPSQLGNLTELQVLWLAGCNLVGPIPPSLSRLTSLVNLDLTFNQLTGSIPSWITQLKTVEQIELFNNSFSGELPESMGNMTTLKRFDASMNKLTGKIPDNLNLLNLESLNLFENMLEGPLPESITRSKTLSELKLFNNRLTGVLPSQLGANSPLQYVDLSYNRFSGEIPANVCGEGKLEYLILIDNSFSGEISNNLGKCKSLTRVRLSNNKLSGQIPHGFWGLPRLSLLELSDNSFTGSIPKTIIGAKNLSNLRISKNRFSGSIPNEIGSLNGIIEISGAENDFSGEIPESLVKLKQLSRLDLSKNQLSGEIPRELRGWKNLNELNLANNHLSGEIPKEVGILPVLNYLDLSSNQFSGEIPLELQNLKLNVLNLSYNHLSGKIPPLYANKIYAHDFIGNPGLCVDLDGLCRKITRSK
# modifications: N-glycans (glycoprotein of ~75 kDa)
# B3: synthetic Lys66/Arg67 → Ala mutant IDA peptide (peptide)
# peptide: YVPIPPSA[Hyp]SAAHN
# notes: INFLORESCENCE DEFICIENT IN ABSCISSION (IDA), Arabidopsis thaliana; as the IDA stretch of m3 with the two changes; also called IDA K66A/R67A; IDA K66A/R66A; source: synthetic peptide
# B4: SERK1: LRR ectodomain of Arabidopsis SERK1 co-receptor (residues 24–213, Asn115→Asp, Asn163→Gln), expressed in insect cells (protein)
# chain: ASANLEGDALHTLRVTLVDPNNVLQSWDPTLVNPCTWFHVTCNNENSVIRVDLGNAELSGHLVPELGVLKNLQYLELYSNNITGPIPSNLGDLTNLVSLDLYLNSFSGPIPESLGKLSKLRFLRLNNNSLTGSIPMSLTQITTLQVLDLSNNRLSGSVPDNGSFSLFTPISFANNLDLCGPVTSHPCPGS
# modifications: left off: Strep, C-terminal, cleaved | 9xHis, C-terminal, cleaved
# notes: LRR ectodomain of Arabidopsis SERK1 co-receptor (residues 24–213, Asn115→Asp, Asn163→Gln), expressed in insect cells
# B5: synthetic IDA peptide YVPIPPSA-Hyp-SKRHN (peptide)
# peptide: YVPIPPSA[Hyp]SKRHN
# notes: N-terminal Tyr residue added to allow for peptide quantification by UV absorbance; INFLORESCENCE DEFICIENT IN ABSCISSION (IDA), Arabidopsis thaliana; Hyp written as P; Used in ITC and for the HAESA-IDA-SERK1 complex that was crystallised; also called wild-type IDA; IDA wild-type; source: synthetic peptide
# B6: synthetic IDA peptide PIPPSA-Hyp-SKRHN (crystal soak) (peptide)
# peptide: PIPPSA[Hyp]SKRHN
# notes: INFLORESCENCE DEFICIENT IN ABSCISSION (IDA), Arabidopsis thaliana, residues 58-69; Hyp written as P; also called dodecamer peptide; source: synthetic peptide
# B7: synthetic PKGV-IDA peptide YPKGVPIPPSA-Hyp-SKRHN (peptide)
# peptide: YPKGVPIPPSA[Hyp]SKRHN
# notes: N-terminal Tyr; INFLORESCENCE DEFICIENT IN ABSCISSION (IDA), Arabidopsis thaliana; Hyp written as P; also called N-terminally extended IDA peptide; source: synthetic peptide
# Key:
# [1] = target: T1, HAESA ectodomain (residues 20–620) (Arabidopsis thaliana, UniProt P47735); assay: Isothermal titration calorimetry of synthetic IDA-family peptides vs. the isolated HAESA ectodomain; format: binding
# T1 construct: We purified the HAESA ectodomain (residues 20–620) from baculovirus-infected insect cells; azurocidin signal peptide (N); made in house; host or cells: Trichoplusia ni Tnao38 insect cells (baculovirus, secreted)
# From the text: (§1) Synthetic genes coding for the Arabidopsis thaliana HAESA (residues 20–620) and SERK1 ectodomains (residues 24–213, carrying Asn115→Asp and Asn163→Gln mutations), codon optimized for expression in Trichoplusia ni (Geneart, Germany), were cloned into a modified pBAC-6 transfer vector (Novagen, Billerica, MA), providing an azurocidin signal peptide and a C-terminal TEV (tobacco etch virus protease) cleavable Strep-9xHis tandem affinity tag. Recombinant baculoviruses were generated by co-transfecting transfer vectors with linearised baculovirus DNA (ProFold-ER1, AB vector, San Diego, CA) followed by viral amplification in Spodoptera frugiperda Sf9 cells. […] The purified HAESA ectodomain was incubated with a synthetic IDA peptide (YVPIPPSA-Hyp-SKRHN, the N-terminal Tyr residue was added to allow for peptide quantification by UV absorbance) and the SERK1 ectodomain in 1:1:1.5 molar ratio. […]
# (§2) ITC experiments were performed using a Nano ITC (TA Instruments, New Castle, DE) with a 1.0 mL standard cell and a 250 μL titration syringe. […] Molar protein concentrations for SERK1 and HAESA were calculated using their molar extinction coefficient and a molecular weight of 27,551 and 74,896 Da, respectively (determined by MALDI-TOF mass spectrometry). […] Data were analyzed using the NanoAnalyze program (version 2.3.6) as provided by the manufacturer.
# [2] = tested on: HAESA and SERK1 ectodomains; assay: Analytical size-exclusion chromatography of HAESA – SERK1 ectodomain complex formation with peptide; format: binding, Arabidopsis thaliana; conditions: Superdex 200 HR 10/30, 20 mM citric acid pH 5, 100 mM NaCl; peptide 25 μM; HAESA and SERK1 1:1 molar ratio; UV 280 nm
# Description: Gel filtration experiments were performed using a Superdex 200 HR 10/30 column (GE Healthcare) pre-equilibrated in 20 mM citric acid (pH 5) and 100 mM NaCl. 100 μL of the isolated HAESA ectodomain (5.5 mg/mL), of the purified SERK1 LRR domain (3 mg/mL) or of mixtures of HAESA and SERK1 (either in the presence or absence of synthetic wild-type IDA, wild-type IDL1 or mutant IDA peptides at a concentration of 25 μM; 10 mg/mL; samples contained HAESA and SERK1 in 1:1 molar ratio) were loaded sequentially onto the column and elution at 0.5 mL/min was monitored by ultraviolet absorbance at 280 nm.
# [3] = target: T2, Arabidopsis thaliana HAESA ectodomain (residues 20–620) (Arabidopsis thaliana, UniProt P47735 20-620, N-glycans (glycoprotein of ~75 kDa)); assay: crystal structure; apo HAESA ectodomain crystals soaked in crystallization buffer with 15 mM synthetic peptide; conditions: both partners purified
# T2 construct: HAESA, leucine-rich repeat receptor kinase, Arabidopsis thaliana, ectodomain residues 20–620; Synthetic gene, codon optimized; the vector provides an azurocidin signal peptide for secretion; also called HAESA LRR domain; HAESA LRR ectodomain; not shown: Strep, C-terminal, cleaved; 9xHis, C-terminal, cleaved
# T2 sequence (looked up): B2 chain
# [4] = target: T3, Arabidopsis thaliana SERK1 ectodomain (residues 24–213, Asn115→Asp and Asn163→Gln) (Arabidopsis thaliana, UniProt Q94AG2 24-213, Asn115→Asp | Asn163→Gln); assay: ITC; in presence of IDA
# T3 sequence: B4 chain
# [5] = target: T4, 1:1 HAESA – SERK1 ectodomain mixture (Arabidopsis thaliana, UniProt P47735 20-620; Q94AG2 24-213, Asn115→Asp | Asn163→Gln, N-glycans); assay: ITC; 150 μM wild-type or mutant IDA peptide in the syringe, 10 μM of a 1:1 HAESA – SERK1 protein mixture in the cell; 25°C; 20 mM citric acid pH 5.0, 100 mM NaCl; conditions: both partners purified
# T4 construct: HAESA, Arabidopsis thaliana, ectodomain residues 20–620; SERK1, Arabidopsis thaliana, ectodomain residues 24–213; they are the content of the ITC cell into which the peptides were titrated; also called HAESA/SERK1 protein solution; HAESA - SERK1 mixture; source: Trichoplusia ni Tnao38 cells (baculovirus), each ectodomain expressed and purified separately, then mixed 1:1; not …
# T4 sequence (looked up) 1: B2 chain
# T4 sequence (looked up) 2: B4 chain
# [6] = target: B2; assay: ITC
# [7] = tested on: HAESA ectodomain; assay: Isothermal titration calorimetry of SERK1 titrated into HAESA ectodomain only; set-up: species or system Arabidopsis thaliana; conditions: ITC, 25°C, pH 5.0; SERK1 (100 μM) titrated into HAESA (10 μM) in the absence of IDA; n.d. no detectable binding
# From the text: as §1, §2
# [8] = tested on: HAESA - IDA; assay: Isothermal titration calorimetry of SERK1 titrated into HAESA in the presence of IDA; format: binding, Arabidopsis thaliana; conditions: ITC, 25°C, pH 5.0; SERK1 (100 μM) titrated into HAESA (10 μM) in the presence of 150 μM wild-type IDA peptide
# From the text: as §1, §2
# [9] = target: T5, 1:1 HAESA – SERK1 ectodomain mixture (Arabidopsis thaliana, UniProt P47735 20-620; Q94AG2 24-213, Asn115→Asp | Asn163→Gln, N-glycans); assay: ITC; HAESA - SERK1 mixture in cell
# T5 sequence 1: B2 chain
# T5 sequence 2: B4 chain
molecule,measurement,setting,value
CC[C@H](C)[C@H](NC(=O)[C@@H]1CCCN1C(=O)[C@@H](NC(=O)[C@@H](N)Cc1ccc(O)cc1)C(C)C)C(=O)N1CCC[C@H]1C(=O)N1CCC[C@H]1C(=O)N[C@@H](CO)C(=O)N[C@@H](C)C(=O)N1C[C@H](O)C[C@H]1C(=O)N[C@@H](CO)C(=O)N[C@@H](CCCCN)C(=O)N[C@@H](CCCNC(=N)N)C(=O)N[C@@H](Cc1c[nH]cn1)C(=O)N[C@@H](CC(N)=O)C(=O)O [IDA],Kd,[1],20 ± 0.9 µM
IDA Hyp64P: IDA mutant peptide with Hyp64 replaced with proline (YVPIPPSAPSKRHN),HAESA – SERK1 complex formation in size exclusion chromatography,[2],no complex formation
"YPIPPSA[Hyp]SKRHNSFVN [IDA-SFVN, C-terminally extended IDA peptide]","binding to the HAESA ectodomain, in words",[1]; ITC,cannot bind
B1,binding result,[3],binds
B2,Kd,[4],0.075 µM
B3,fold reduced binding affinity against wild-type IDA,[5],10 fold
YLVPPSG[Hyp]SMRHN [synthetic IDL1 peptide YLVPPSG-Hyp-SMRHN (ITC)],Kd,[6],135 µM
B4,"Kd of SERK1, protein in cell: HAESA",[7],no detectable interaction
same,"Kd of SERK1, protein in cell: HAESA - IDA",[8],mid-nanomolar range
B5,Kd,[9],0.35 µM
same,fold higher binding affinity than for HAESA alone,[5],~60 fold
B6,binding result,[3],binds
B7,Kd,[6],25 µM
same,binding result,[3],binds
